From publication PMC10763354

Columns and labels:
[1] = biological target: leucine-rich repeat containing 19 (LRRC19) protein (UniProt Q9H756); test: MST; Monolith NT.115; NT647-labelled LRRC19 and DVF in the presence of typhaneoside; MST buffer (50 mM Tris-HCl pH 7.4, 150 mM NaCl, 10 mM MgCl2)
[2] = biological target: leucine-rich repeat containing 19 (LRRC19) protein (UniProt Q9H756); test: SPR; BIACORE 3000, 25 °C; LRRC19 immobilised on a CM5 chip (EDC/NHS); DVF in Tris buffered saline injected at 30 μL/min, at least 5 concentrations, 180 s binding, 300 s dissociation

leucine-rich repeat containing 19 (LRRC19) protein, sequence (Q9H756 25-270): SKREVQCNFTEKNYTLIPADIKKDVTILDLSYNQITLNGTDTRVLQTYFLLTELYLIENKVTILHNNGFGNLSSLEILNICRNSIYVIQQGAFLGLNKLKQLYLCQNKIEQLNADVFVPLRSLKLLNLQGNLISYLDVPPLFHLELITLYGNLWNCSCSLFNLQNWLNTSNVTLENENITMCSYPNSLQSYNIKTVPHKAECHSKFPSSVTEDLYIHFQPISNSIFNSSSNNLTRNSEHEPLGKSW

fold reduction of the binding affinity by typhaneoside (against DVF-LRRC19 without it) [1]: 400 fold
Kd [2]: 35 µM
Substance: Desulfovibrio vulgaris flagellin (natural protein)
